For orientation: Kd means the constant that tells how readily two partners part at equilibrium. Read a low Kd as a tighter complex.

Kd data for 1 molecule are collected here from article PMC9464622 (2022).

The experiment concerns the target T1, LL-37 (Homo sapiens, UniProt P49913).
T1 chain: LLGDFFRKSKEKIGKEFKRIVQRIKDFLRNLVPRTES
Description: tryptophan fluorescence.

B1: rfhSP-A trimeric recombinant fragment (protein)
chain: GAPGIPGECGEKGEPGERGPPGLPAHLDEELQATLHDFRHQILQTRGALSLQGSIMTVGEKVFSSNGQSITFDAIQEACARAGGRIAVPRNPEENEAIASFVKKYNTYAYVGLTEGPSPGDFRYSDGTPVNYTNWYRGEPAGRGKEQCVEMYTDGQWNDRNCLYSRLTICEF
Molecule B1 yielded a Kd of 1.22 nM.
